Laboratory results from the supplement of paper PMC7877785.
± gives the uncertainty stated by the source.

Assay: self-splicing fitness, log relative to wild type (ln ratio); higher = more splicing; Tetrahymena group I intron in knt gene, E. coli kanamycin selection, DiMSum; sequences stand for … in CUCUCU…GGAGGGAAAAGUUAUCAGGCAUGCACCUGGUAGCUAGUCUUUAAACCAAUAGAUUGCAUCGGUUUAAAAGGCAAGACCGUCAAAUUGCGGGAAAGGGGUCAACAGCCGUUCAGUACCAAGUCUCAGGGGAAACUUUGAGAUGGCCUUGCAAAGGGUAUGGUAAUAAGCUGACGGACAUGGUCCUAACCACGCAGCCAAGUCCUAAGUCAACAGAUCUUCUGUUGAUAUGGAUGCAGUUCACAGACUAAAUGUCGGUCGGGGAAGAUGUAUUCUUCUCAUAAGAUAUAGUCGGACCUCUCCUUAAUGGGAGCUAGCGGAUGAAGUGAUGCAACACUGGAGCCGCUGGGAACUAAUUUGUAUGCGAAAGUAUAUUGAUUAGUUUUGGAGUACUCGUGGUCG
In short: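 A randomised library covering all eight P1ex-region intron nucleotides was built with the intron in the knt kanamycin-resistance gene on pET-22b(+) and held in E. coli BL21(DE3). Cells were grown overnight at 37°C or 30°C on LB agar, with or without 25 μg/mL kanamycin, plus 100 μg/mL carbenicillin, 50 μM IPTG and 0.2% rhamnose, and pooled colonies were amplicon-sequenced on an Illumina HiSeq 2500. DiMSum fitness is the error-weighted combination of wild-type-normalised replicate fold changes, kanamycin versus none.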

| Sequence | self-splicing fitness (ln) (30 °C) | self-splicing fitness (ln) (37 °C) |
| --- | --- | --- |
| GCUUAGCAAUAUUACGCAGA | -2.62 ± 0.22 | -3.24 ± 0.43 |
| GCUUAGCAAUAUUACGCGAU | -3.45 ± 0.34 | -1.69 ± 0.29 |
| GCUUAGCAAUAUUACGCGCA | -1.37 ± 0.16 | 0.00629 ± 0.17 |
| GCUUAGCAAUAUUACGCGGA | -1.32 ± 0.071 | -0.345 ± 0.071 |
| GCUUAGCAAUAUUACGCUCA | -1.34 ± 0.23 | -0.203 ± 0.22 |
| GCUUAGCAAUAUUACGCUGG | – | -2.13 ± 0.3 |
| GCUUAGCAAUAUUACGGCUC | -0.359 ± 0.098 | 0.0516 ± 0.12 |
| GCUUAGCAAUAUUACGGGAA | -0.679 ± 0.12 | 0.196 ± 0.11 |
| GCUUAGCAAUAUUACGGGCA | -2.24 ± 0.27 | -0.778 ± 0.19 |
| GCUUAGCAAUAUUACGGUGA | -1.46 ± 0.092 | -1.75 ± 0.1 |
| GCUUAGCAAUAUUACGUAAA | -0.47 ± 0.084 | 0.317 ± 0.1 |
| GCUUAGCAAUAUUACGUCCG | -1.68 ± 0.19 | -1.43 ± 0.24 |
| GCUUAGCAAUAUUACGUGAC | -1.54 ± 0.09 | -1.08 ± 0.13 |
| GCUUAGCAAUAUUACGUGUC | -1.23 ± 0.14 | -0.348 ± 0.14 |
| GCUUAGCAAUAUUACGUUGU | -1.5 ± 0.066 | -0.844 ± 0.093 |
| GGAAAGCAAUAUUACGACGG | -4.1 ± 0.39 | -2.12 ± 0.4 |
| GGAAAGCAAUAUUACGACUU | -0.349 ± 0.1 | -0.0565 ± 0.11 |
| GGAAAGCAAUAUUACGAGAG | -4.25 ± 0.26 | -0.533 ± 0.1 |
| GGAAAGCAAUAUUACGAGGU | -3.65 ± 0.17 | -2.87 ± 0.25 |
| GGAAAGCAAUAUUACGAUAC | 0.424 ± 0.17 | -0.511 ± 0.35 |
| GGAAAGCAAUAUUACGAUCC | -3.2 ± 0.39 | – |
| GGAAAGCAAUAUUACGAUCG | -0.227 ± 0.084 | -0.145 ± 0.12 |
| GGAAAGCAAUAUUACGAUGU | -1.69 ± 0.094 | -0.262 ± 0.13 |
| GGAAAGCAAUAUUACGCACA | -0.416 ± 0.091 | 0.0226 ± 0.14 |
| GGAAAGCAAUAUUACGCCGU | -1.5 ± 0.26 | 0.351 ± 0.28 |

| Sequence | self-splicing fitness (ln) (30 °C) | self-splicing fitness (ln) (37 °C) |
| --- | --- | --- |
| GGAAAGCAAUAUUACGCGCC | -3.03 ± 0.49 | -2.17 ± 0.42 |
| GGAAAGCAAUAUUACGCGGG | -2.64 ± 0.18 | -1.5 ± 0.18 |
| GGAAAGCAAUAUUACGCGUC | -3.58 ± 0.22 | -2.89 ± 0.23 |
| GGAAAGCAAUAUUACGCUCG | -0.352 ± 0.15 | 0.329 ± 0.17 |
| GGAAAGCAAUAUUACGGAAA | -2.04 ± 0.22 | -1.25 ± 0.24 |
| GGAAAGCAAUAUUACGGAAG | -4.32 ± 0.22 | -1.93 ± 0.15 |
| GGAAAGCAAUAUUACGGCCU | -1.71 ± 0.15 | -0.809 ± 0.21 |
| GGAAAGCAAUAUUACGGCUG | -0.471 ± 0.12 | -0.348 ± 0.17 |
| GGAAAGCAAUAUUACGGGCC | -2.41 ± 0.23 | -2.16 ± 0.32 |
| GGAAAGCAAUAUUACGGGGU | -3.1 ± 0.22 | -3 ± 0.28 |
| GGAAAGCAAUAUUACGGUAA | -1.62 ± 0.15 | -0.544 ± 0.12 |
| GGAAAGCAAUAUUACGGUCA | -0.418 ± 0.09 | 0.154 ± 0.1 |
| GGAAAGCAAUAUUACGUGUG | -2.41 ± 0.087 | -0.505 ± 0.078 |
| GGAAAGCAAUAUUACGUUGA | -2.31 ± 0.081 | -1.27 ± 0.084 |
| GGAAAGCAAUAUUACGUUUA | -1.89 ± 0.11 | -1.16 ± 0.11 |
| GGACAGCAAUAUUACGAAUA | -1.69 ± 0.13 | -0.937 ± 0.13 |
| GGACAGCAAUAUUACGACUA | 0.148 ± 0.12 | -0.612 ± 0.12 |
| GGACAGCAAUAUUACGACUC | -0.16 ± 0.078 | 0.231 ± 0.097 |
| GGACAGCAAUAUUACGACUU | -0.232 ± 0.085 | 1.19 ± 0.1 |
| GGACAGCAAUAUUACGAGGC | -2.17 ± 0.14 | -1.32 ± 0.2 |
| GGACAGCAAUAUUACGAUGC | 0.225 ± 0.075 | 0.446 ± 0.09 |
| GGACAGCAAUAUUACGCCCU | -3.25 ± 0.2 | -0.306 ± 0.14 |
| GGACAGCAAUAUUACGCGGU | -4.03 ± 0.23 | -1.6 ± 0.15 |
| GGACAGCAAUAUUACGCGUG | -1.17 ± 0.065 | -0.234 ± 0.074 |
| GGACAGCAAUAUUACGCUAA | -0.66 ± 0.1 | -0.339 ± 0.12 |

| Sequence | self-splicing fitness (ln) (30 °C) | self-splicing fitness (ln) (37 °C) |
| --- | --- | --- |
| GGACAGCAAUAUUACGCUUU | -1.39 ± 0.065 | -0.538 ± 0.087 |
| GGACAGCAAUAUUACGGAGU | -1.61 ± 0.12 | -1.12 ± 0.11 |
| GGACAGCAAUAUUACGGAUG | -3.44 ± 0.16 | -0.131 ± 0.11 |
| GGACAGCAAUAUUACGGUGG | -1.71 ± 0.11 | -1.53 ± 0.14 |
| GGACAGCAAUAUUACGUAAC | -0.0173 ± 0.1 | -0.0671 ± 0.14 |
| GGACAGCAAUAUUACGUACU | -1.22 ± 0.097 | -0.317 ± 0.1 |
| GGACAGCAAUAUUACGUAUA | -0.645 ± 0.1 | -0.388 ± 0.095 |
| GGACAGCAAUAUUACGUCCA | -1.24 ± 0.13 | -0.889 ± 0.16 |
| GGACAGCAAUAUUACGUGAC | -1.07 ± 0.081 | -1.23 ± 0.13 |
| GGACAGCAAUAUUACGUGUG | -1.55 ± 0.05 | -0.79 ± 0.066 |
| GGACAGCAAUAUUACGUUGA | -0.48 ± 0.07 | 0.279 ± 0.098 |
| GGAGAGCAAUAUUACGAAAG | -2.26 ± 0.26 | – |
| GGAGAGCAAUAUUACGAACU | -1.36 ± 0.31 | -1.92 ± 0.37 |
| GGAGAGCAAUAUUACGAAUC | -3.58 ± 0.49 | -2.4 ± 0.39 |
| GGAGAGCAAUAUUACGAGGA | -3.52 ± 0.31 | -2.44 ± 0.19 |
| GGAGAGCAAUAUUACGAGGG | -1.99 ± 0.38 | – |
| GGAGAGCAAUAUUACGAUUC | -1.58 ± 0.29 | -0.911 ± 0.26 |
| GGAGAGCAAUAUUACGCAAA | -3.82 ± 0.43 | – |
| GGAGAGCAAUAUUACGCAUA | -3.12 ± 0.26 | -2.73 ± 0.23 |
| GGAGAGCAAUAUUACGCUUC | – | -1.31 ± 0.43 |
| GGAGAGCAAUAUUACGGAUG | – | -1.45 ± 0.35 |
| GGAGAGCAAUAUUACGGCAG | -3.29 ± 0.38 | – |
| GGAGAGCAAUAUUACGGCUU | -0.815 ± 0.2 | -2.01 ± 0.3 |
| GGAGAGCAAUAUUACGGGUC | -1.54 ± 0.15 | -1.53 ± 0.2 |
| GGAGAGCAAUAUUACGGUCC | – | -1.17 ± 0.34 |

| Sequence | self-splicing fitness (ln) (30 °C) | self-splicing fitness (ln) (37 °C) |
| --- | --- | --- |
| GGAGAGCAAUAUUACGGUGC | -3.03 ± 0.12 | -1.57 ± 0.11 |
| GGAGAGCAAUAUUACGGUUU | -2.6 ± 0.094 | -1.15 ± 0.092 |
| GGAGAGCAAUAUUACGUACA | – | -1.61 ± 0.47 |
| GGAGAGCAAUAUUACGUCGC | -1.99 ± 0.39 | 0.588 ± 0.38 |
| GGAGAGCAAUAUUACGUGGA | – | -3.26 ± 0.32 |
| GGAUAGCAAUAUUACGAGAC | -2.63 ± 0.25 | -2.63 ± 0.48 |
| GGAUAGCAAUAUUACGAUAG | -2.63 ± 0.23 | -2.86 ± 0.47 |
| GGAUAGCAAUAUUACGCAAU | -1.83 ± 0.41 | -0.704 ± 0.23 |
| GGAUAGCAAUAUUACGCGGG | -3.3 ± 0.17 | -0.931 ± 0.11 |
| GGAUAGCAAUAUUACGCUAA | -2.07 ± 0.16 | -1.03 ± 0.22 |
| GGAUAGCAAUAUUACGGAAG | -3.41 ± 0.26 | -2.85 ± 0.24 |
| GGAUAGCAAUAUUACGGAAU | -2.48 ± 0.17 | -2.33 ± 0.24 |
| GGAUAGCAAUAUUACGGCGU | 0.322 ± 0.093 | 0.626 ± 0.1 |
| GGAUAGCAAUAUUACGGGCA | -2.6 ± 0.26 | -0.844 ± 0.11 |
| GGAUAGCAAUAUUACGGUAC | -1.59 ± 0.14 | 0.179 ± 0.13 |
| GGAUAGCAAUAUUACGGUGU | -1.3 ± 0.059 | -1.05 ± 0.083 |
| GGAUAGCAAUAUUACGGUUC | -2.54 ± 0.23 | -2.05 ± 0.28 |
| GGAUAGCAAUAUUACGUAAU | -1.99 ± 0.13 | -0.617 ± 0.14 |
| GGAUAGCAAUAUUACGUACG | -0.84 ± 0.21 | -0.97 ± 0.25 |
| GGAUAGCAAUAUUACGUCGA | -0.726 ± 0.1 | -0.0349 ± 0.098 |
| GGAUAGCAAUAUUACGUGAA | -1.83 ± 0.07 | -1.13 ± 0.081 |
| GGAUAGCAAUAUUACGUGCU | -1.26 ± 0.085 | -1.21 ± 0.12 |
| GGAUAGCAAUAUUACGUUCA | -0.502 ± 0.1 | -0.00255 ± 0.15 |
